In patent US7563882B2, “Polynucleotides encoding antibodies that bind to the C35 polypeptide” (University of Rochester, priority 2002, dated 2009):

Key:
HLA-B*0702 = HLA-B*0702 (Homo sapiens, UniProt P01889); assay: Fluorescence polarization competition for MHC-peptide binding; details: soluble HLA-B*0702, fluorescent labeled binding standard
Method: A similar analysis was conducted with C35 peptides that bind to soluble HLA-B*0702 employing a fluorescent labeled HLA-B*0702 binding standard and suitable relevant and irrelevant peptides to calibrate inhibition of binding by test peptides. Note that these inhibition values are sensitive to the choice and concentration of both MHC molecule and specific fluorescent peptides under the same assay conditions.

EBV-B target cells = assay: C35 peptide mediated T cell lysis of peptide pulsed EBV-B cells (Table 10); type: cell-based, human
T cell line 4 = type: cell-based, human
hC35 protein = molecular target: T1, hC35 protein (Homo sapiens, UniProt Q9BRT3); assay: Western Blot immunodetection with hybridoma supernatants; type: binding; details: 100 ng purified recombinant C35 protein or control β-galactosidase per lane
T1 construct: made in house; host or cells: E. coli
T1 sequence (Q9BRT3 1-115): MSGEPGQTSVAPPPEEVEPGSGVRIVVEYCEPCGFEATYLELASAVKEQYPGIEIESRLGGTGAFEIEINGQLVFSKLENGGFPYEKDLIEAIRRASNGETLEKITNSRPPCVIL
Method: Western Blot Immunodetection was performed with supernatants from selected hybridoma clones. […] In these experiments, 100 ng of purified recombinant C35 protein or control β-galactosidase protein was loaded in each lane of an 18% SDS polyacrylamide gel. Gels were transferred to PVDF membrane, as is well known to those practiced in the art. Membranes were blocked with Tris buffered saline (TBS), including Tween-20 and 5% non-fat dry milk. Each blot was incubated with various dilutions of hybridoma supernatants as the primary antibody, followed by incubation with a secondary antibody, goat anti-mouse IgG conjugated to HRP, and detected with the chemiluminescent substrate, ECL. Similar results were obtained with 11B10 (not shown).

C35 = molecular target: T2, C35 (Homo sapiens, UniProt Q9BRT3); assay: Immunohistochemical staining of primary breast tumor sections; type: binding; details: paraffin sections, affinity purified antibody
T2 construct: from tissue; host or cells: paraffin sections of primary human breast tumor (invasive breast adenocarcinoma, patient 01A6) and normal breast tissue
T2 sequence (Q9BRT3 1-115): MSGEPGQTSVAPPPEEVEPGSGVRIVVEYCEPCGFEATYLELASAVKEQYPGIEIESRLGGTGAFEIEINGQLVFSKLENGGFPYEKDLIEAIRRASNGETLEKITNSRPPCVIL
Text: Antibody was affinity purified from 1F2 hybridoma supernatant. Paraffin-embedded slides were deparaffinized with xylene and rehydrated through graded alcohols. Target retrieval was achieved through steam and high pH treatment. […] Slides were counterstained with hematoxylin, dehydrated with EtOH/xylene, and coverslipped.

With ITNSRPPCV [105-113] the “% Inhibition” value (HLA-B*0702) was 45.2%.

For KLENGGFPY [peptide 77-85], the “% Lysis EBV-B cell Target” value (EBV-B target cells; T cell clone #46, donor (A2, A3; B18, B44), target pulsed with peptide) was 97.1%, the “lytic activity on EBV-B cells pulsed with peptide” value (EBV-B target cells; T cell clones from donor with A2, A3, B18, B44 HLA haplotypes) was 97.1% and the GM-CSF stimulation (T cell line 4) was “greatest stimulation”.

With NSRPPCVIL [N107 to L115] the “% Inhibition” value (HLA-B*0702) was 68.2%.

B1: 1F2: C35-specific monoclonal antibody; Kappa and IgG1 V-genes SEQ ID NOs:148 and 149 (antibody, V domains shown)
VH: MKVLSLLYLLTAIPGILSDVQLQESGPGLVKPSQSLSLTCSVTGYSITSGYFWNWIRQFPGNKLEWMGYISYDGSNNSNPSLKNRISFTRDTSKNQFFLKFNSVTTDDSAAYYCTRGTTGFAYWGQGTLVTVSA
VL: MDFQVQIFSFLLISASVRMSRGQIVLTQSPAIMSASPGEKVTISCSASSSVSYMNWYQQKPGSSPKPWIYHTSNLASGVPARFSGSGSGTSYSLTISSMEAEDAATYYCQQYHSYPPTFGGGTKLEIK
modifications: cDNA of 1E11/1F2 V-genes (IgG1); cDNA of 1E11/1F2 V-genes (Kappa)
In the case of B1, the “reactivity with hC35 protein in Western Blot” value (hC35 protein) is reported as “reacted specifically”, the “immunohistochemical staining of human breast tumors” value (C35) is reported as “can detect high levels of endogenous C35 expression” and the “immunohistochemical staining of normal breast tissue” value (C35) is reported as “little or no staining”.

B2: 3E10: C35-specific monoclonal antibody; Kappa and IgG1 V-genes SEQ ID NOs:150 and 151 (antibody, V domains shown)
VH: MMVLSLLYLLTALPGILSEVQLQESGPSLVKPSQTLSLTCSVTGDSITSGYWNWIRKFPGNKLEYVGYISYSGGTYYNPSLKSRISITRDTSKNHYYLQLNSVTTEDTATYYCARGAYYGGAFFPYFDVWGAGTTVTVSS
VL: MRFQVQVLGLLLLWISGAHCDVQITQSPSFLAASPGETITINCRASKYISKHLVWYQEKPGETKKLLIYSGSTLQSGLPSRFSGSGSGTDFTLTISSLEPEDFAMYYCQQHNEYPLTFGAGTKLELK
modifications: cDNA of 3E10 V-genes (IgG1); cDNA of 3E10 V-genes (Kappa)
With B2 the “reactivity with hC35 protein in Western Blot” value (hC35 protein) was “reacted specifically”.
